# Laboratory results as given in patent publication US20250326865A1, “C-MET PROTEIN-BINDING PEPTIDE COMPLEX” (PeptiDream Inc., priority 2021, published 2025).
# Starred links: 1 amine or outer side, 2 acyl side, 3 side chain; linkers in the order of their positions; H or OH if unused. Positions of bridges follow the written chain, without caps; N, C: chain ends. Non-standard residues stand in square brackets, D forms with d. Residues, ends and D or L forms follow the SMILES beside them. Primed or numbered codes have the meaning given here. Chains are numbered I, II in the order given. No end group written: not given here. CO(CH2CH2O)9CH2CH2CO = O=C(CCOCCOCCOCCOCCOCCOCCOCCOCCOCCC(=O)[*:2])[*:1]; NMeF = CN[C@@H](Cc1ccccc1)C(=O)O; Ahp(2) = CCCCC[C@H](N)C(=O)O; NMeC = CN[C@@H](CS)C(=O)O; Nle = CCCC[C@H](N)C(=O)O; Ahp′ = not defined here; Abu = CC[C@H](N)C(=O)O
# Target: T1, c-Met (Homo sapiens, UniProt P08581)
# T1 construct: endogenous in cells; host or cells: A431 (human)
# Test: Phospho-c-Met AlphaLISA assay (c-Met agonist activity) in A431 cells
# Format: cell-based
# Conditions: c-Met phosphorylation (Tyr1234/1235) in A431 cells, 15 minutes of stimulation; maximum signal induced by HGF = 100%
# Description: To evaluate the activation potency (c-Met agonist activity) of c-Met of the peptide complex of the present invention, the phosphorylation of c-Met was verified. Human A431 cells were cultured in DMEM high glucose, GlutaMAX (registered trademark) Supplement, pyruvate (Thermo Fisher Scientific), containing 10% FBS (Gibco). After cells were detached using Accutase (Innovative cell technologies), they were seeded into a 96-well plate at 10000 cells per well and cultured overnight. The next day, for starvation, the culture medium was changed to DMEM high glucose, GlutaMAX (registered trademark) Supplement, pyruvate (Thermo Fisher Scientific), containing 0.1% BSA (Sigma-Aldrich), and the cells were cultured overnight. Then, the peptide complex synthesized in Example 3 or Recombinant Human HGF Protein (R&D systems) as a control was added, and after 15 minutes of stimulation, cells were lysed in a Lysis Buffer provided in the AlphaLISA (registered trademark) SureFire (registered trademark) Ultra™ Phospho-c-Met (Tyr1234/1235) kit (PerkinElmer). The assay was performed according to the kit protocol, and a SpectraMax (registered trademark) Paradigm (registered trademark) multimode microplate reader (Molecular Devices, LLC.) was used for signal detection. […] In the same manner, the C50 value was calculated by GraphPad Prism as the concentration of peptide showing 50% activity of the signal induced by HGF. […] Further, for a complex (GFs_c-Met-00014336-PEG13 dimer; complex no. 49 in Table 4) of a peptide (SEQ ID NO: 34) and a linker (SEQ ID NO: 37), a graph of c-Met agonist activity is shown in FIG. 1.
# T1 sequence (P08581 25-1390): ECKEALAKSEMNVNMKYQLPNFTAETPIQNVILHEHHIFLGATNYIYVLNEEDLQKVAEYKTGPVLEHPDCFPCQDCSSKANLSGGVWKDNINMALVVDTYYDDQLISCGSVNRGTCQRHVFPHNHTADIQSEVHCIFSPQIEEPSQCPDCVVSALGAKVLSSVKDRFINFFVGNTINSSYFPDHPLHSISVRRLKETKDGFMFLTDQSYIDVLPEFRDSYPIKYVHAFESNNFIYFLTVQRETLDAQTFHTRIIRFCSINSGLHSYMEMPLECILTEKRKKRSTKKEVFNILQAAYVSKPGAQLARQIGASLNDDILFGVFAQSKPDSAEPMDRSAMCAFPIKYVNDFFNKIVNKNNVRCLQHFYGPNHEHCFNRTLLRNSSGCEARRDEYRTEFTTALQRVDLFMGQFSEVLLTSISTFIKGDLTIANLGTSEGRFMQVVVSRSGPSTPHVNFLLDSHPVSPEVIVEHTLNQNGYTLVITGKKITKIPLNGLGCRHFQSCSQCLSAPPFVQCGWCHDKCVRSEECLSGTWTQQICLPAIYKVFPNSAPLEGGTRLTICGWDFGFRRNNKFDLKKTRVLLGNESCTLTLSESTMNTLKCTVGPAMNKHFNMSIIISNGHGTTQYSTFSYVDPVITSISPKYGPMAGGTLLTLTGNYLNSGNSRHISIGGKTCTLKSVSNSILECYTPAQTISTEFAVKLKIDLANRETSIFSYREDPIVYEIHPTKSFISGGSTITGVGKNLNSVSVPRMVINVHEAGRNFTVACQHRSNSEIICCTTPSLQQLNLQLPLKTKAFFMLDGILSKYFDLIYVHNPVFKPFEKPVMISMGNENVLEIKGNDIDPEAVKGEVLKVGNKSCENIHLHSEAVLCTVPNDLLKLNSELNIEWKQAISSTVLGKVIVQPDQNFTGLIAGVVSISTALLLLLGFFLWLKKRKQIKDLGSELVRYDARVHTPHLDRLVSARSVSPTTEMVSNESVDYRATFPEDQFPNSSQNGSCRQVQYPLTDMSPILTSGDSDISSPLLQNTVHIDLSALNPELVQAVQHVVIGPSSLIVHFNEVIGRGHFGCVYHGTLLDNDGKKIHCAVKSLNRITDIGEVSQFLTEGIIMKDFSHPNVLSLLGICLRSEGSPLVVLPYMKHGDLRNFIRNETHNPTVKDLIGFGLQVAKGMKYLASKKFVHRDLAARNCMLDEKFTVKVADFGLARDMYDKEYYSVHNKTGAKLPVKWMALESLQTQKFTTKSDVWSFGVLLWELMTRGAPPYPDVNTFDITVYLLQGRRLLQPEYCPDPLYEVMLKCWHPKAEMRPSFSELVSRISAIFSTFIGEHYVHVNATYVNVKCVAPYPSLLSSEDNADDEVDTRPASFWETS
row,Molecule,C-Met Agonist Activity (2 or 1)
1,11 ({CH2CO}-[NMeF]VYVS[NMeF]DDD[Ahp′]PRW[Abu][NMeC]; thioether N-15 (inferred); not fully specified; reading uncertain; also: conjugated moiety via linker) [Peptide 11],2 (those showing more than 50% activation were described as 2)
2,"4 (AVYVS[NMeF]DDD[Ahp′]PRWS[NMeC]; not fully specified (N-terminus, bridges); reading uncertain; also: conjugated moiety via linker) [Peptide 4]",1 (those showing less than 50% activation as 1)
3,8 ({CH2CO}-[NMeF]VYVS[NMeF]DDD[Nle]PRWS[NMeC]; thioether N-15 (inferred); not fully specified; also: conjugated moiety via linker) [Peptide 8],2 (those showing more than 50% activation were described as 2)
4,1 ({CH2CO}-[NMeF]VYVS[NMeF]DDD[Ahp′]PRWS[NMeC]; thioether N-15 (inferred); not fully specified; reading uncertain; also: conjugated moiety via linker) [Peptide 1],2 (those showing more than 50% activation were described as 2)

# Same assay, conditions: concentration of peptide showing 50% activity of the signal induced by HGF; A431 cells, 15 minutes of stimulation; read-out: C-Met Agonist Activity (C50; nM)
row,EC50 [nM],Molecule
1,0.67,"CCCCC[C@@H]1NC(=O)[C@H](CC(=O)O)NC(=O)[C@@H]2CCCN2C(=O)[C@H](CC(=O)O)NC(=O)[C@H](Cc2ccccc2)N(C)C(=O)[C@H](CO)NC(=O)[C@H](C(C)C)NC(=O)[C@H](C)NC(=O)[C@H]([C@@H](C)O)NC(=O)[C@H](Cc2ccccc2)N(C)C(=O)CSC[C@@H](C(=O)NCC(=O)N[C@@H](CCCCNC(=O)CCOCCOCCOCCOCCOCCOCCOCCOCCOCCC(=O)NCCCC[C@H](NC(=O)CNC(=O)[C@@H]2CSCC(=O)N(C)[C@@H](Cc3ccccc3)C(=O)N[C@@H]([C@@H](C)O)C(=O)N[C@@H](C)C(=O)N[C@@H](C(C)C)C(=O)N[C@@H](CO)C(=O)N(C)[C@@H](Cc3ccccc3)C(=O)N[C@@H](CC(=O)O)C(=O)N3CCC[C@H]3C(=O)N[C@@H](CC(=O)O)C(=O)N[C@@H](CCCCC)C(=O)N3CCC[C@H]3C(=O)N[C@@H](CCCNC(=N)N)C(=O)N[C@@H](Cc3c[nH]c4ccccc34)C(=O)N[C@@H](C)C(=O)N2C)C(N)=O)C(N)=O)N(C)C(=O)[C@H](C)NC(=O)[C@H](Cc2c[nH]c3ccccc23)NC(=O)[C@H](CCCNC(=N)N)NC(=O)[C@@H]2CCCN2C1=O [Peptide 46] (I: {CH2CO}-[NMeF]TAVS[NMeF]DPD[Ahp(2)]PRWA[NMeC]GK-NH2 / II: {CH2CO}-[NMeF]TAVS[NMeF]DPD[Ahp(2)]PRWA[NMeC]GK-NH2; linker I:17-II:17 via CO(CH2CH2O)9CH2CH2CO (inferred); thioether I:N-I:15, II:N-II:15 (inferred))"
2,0.81,"CCCCC[C@@H]1NC(=O)[C@H](CC(=O)O)NC(=O)[C@@H]2CCCN2C(=O)[C@H](CC(=O)O)NC(=O)[C@H](Cc2ccccc2)N(C)C(=O)[C@H](CO)NC(=O)[C@H](C(C)C)NC(=O)[C@H](C)NC(=O)[C@H](CCC(=O)O)NC(=O)[C@H](Cc2ccccc2)N(C)C(=O)CSC[C@@H](C(=O)NCC(=O)N[C@@H](CCCCNC(=O)CCOCCOCCOCCOCCOCCOCCOCCOCCOCCC(=O)NCCCC[C@H](NC(=O)CNC(=O)[C@@H]2CSCC(=O)N(C)[C@@H](Cc3ccccc3)C(=O)N[C@@H](CCC(=O)O)C(=O)N[C@@H](C)C(=O)N[C@@H](C(C)C)C(=O)N[C@@H](CO)C(=O)N(C)[C@@H](Cc3ccccc3)C(=O)N[C@@H](CC(=O)O)C(=O)N3CCC[C@H]3C(=O)N[C@@H](CC(=O)O)C(=O)N[C@@H](CCCCC)C(=O)N3CCC[C@H]3C(=O)N[C@@H](CCCNC(=N)N)C(=O)N[C@@H](Cc3c[nH]c4ccccc34)C(=O)N[C@@H](CO)C(=O)N2C)C(N)=O)C(N)=O)N(C)C(=O)[C@H](CO)NC(=O)[C@H](Cc2c[nH]c3ccccc23)NC(=O)[C@H](CCCNC(=N)N)NC(=O)[C@@H]2CCCN2C1=O [Peptide 30] (I: {CH2CO}-[NMeF]EAVS[NMeF]DPD[Ahp(2)]PRWS[NMeC]GK-NH2 / II: {CH2CO}-[NMeF]EAVS[NMeF]DPD[Ahp(2)]PRWS[NMeC]GK-NH2; linker I:17-II:17 via CO(CH2CH2O)9CH2CH2CO (inferred); thioether I:N-I:15, II:N-II:15 (inferred))"
